Test results taken from patent US20240100152A1 (UNIVERSITY OF PITTSBURGH OF THE COMMONWEALTH SYSTEM OF …, published 2024).

Target: T1, human α7 nicotinic acetylcholine receptor (α7nAChR) expressed on HEK293T/17 cells (human, UniProt P36544 23-502)
T1 construct: whole, on cells
Assay: live-cell fluorescent labeling of transfected HEK293 cells

T1 sequence (P36544 23-502): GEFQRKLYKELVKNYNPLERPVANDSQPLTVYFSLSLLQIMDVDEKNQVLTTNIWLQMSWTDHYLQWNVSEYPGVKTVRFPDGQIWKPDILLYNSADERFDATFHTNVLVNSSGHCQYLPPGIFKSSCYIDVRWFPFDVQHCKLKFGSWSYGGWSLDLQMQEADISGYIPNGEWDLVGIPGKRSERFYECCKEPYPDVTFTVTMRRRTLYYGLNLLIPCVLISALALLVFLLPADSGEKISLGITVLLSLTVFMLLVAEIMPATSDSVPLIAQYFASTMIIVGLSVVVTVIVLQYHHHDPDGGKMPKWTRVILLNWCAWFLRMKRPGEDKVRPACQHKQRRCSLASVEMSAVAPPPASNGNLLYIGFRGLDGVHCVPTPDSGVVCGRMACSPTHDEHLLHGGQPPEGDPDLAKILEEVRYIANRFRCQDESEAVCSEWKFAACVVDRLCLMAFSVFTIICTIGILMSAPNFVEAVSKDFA

B1: α-bungarotoxin Alexa Fluor 594 conjugate (ligand)
chain: IVCHTTATSPISAVTCPPGENLCYRKMWCDAFCSSRGKVVELGCAATCPSKKPYEEVTCCSTDKCNPHPKQRPG
B1: binds.
